4 molecules from patent US20110152352, “SMAD PROTEINS CONTROL DROSHA-MEDIATED MIRNA MATURATION” (Tufts University, published 2011) can be followed below.

Data set [1] has as its target T1, Smad1 full length (UniProt Q15797 Q15797:1-465). The data set is described as follows: pulldown; control duplex without CAGAC. Conditions: tags: GST fusion, E. coli. On the procedure: (§1) In vitro GST-SMAD-RNA pull down assay: GST-smad fusion proteins were expressed in E. coli, isolated and bound to glutathione S-sepharose beads. Following partial purification, Smad bound beads were washed 4×5 min at 4° C. in wash buffer (10 mM Tris-HCl pH 7.6, 0.5M LiCl, 0.1% triton) and 1×10 at 4° C. in binding buffer (20 mM Tris-HCl pH 7.6, 0.1M KCl, 0.1% Tween-20, 0.1% Triton). Beads were resuspended in 100 ul binding buffer and pre-incubated with 25 ug tRNA, 1 ng poly-[dI-dC] and 2 μl RNAse inhibitor for 10 minutes before the addition of 10 pmoles synthesized mature miRNA or ˜20 pmoles in vitro transcribed 156 by pri-miR-21. Following 1 hr incubation with rocking at 4° C., beads were washed 4× with binding buffer. 2 consecutive elutions of bound RNA were performed by addition of 100 ul Elution buffer (1% SDS, 0.15M NaCl) followed by rocking at room temperature for 15 min. The eluates were combined, […] Trizol-LS (Invitrogen) was added and the RNA was purified as usual. RNA was re-suspended in 20 μl water and 1 μl was used in a reverse transcriptase reaction followed by quantitative real time PCR to detect relative levels of RNA binding to Smad-GST fusion proteins.

Data set [2] addresses T2, Smad3 full length (UniProt P84022 P84022:1-425). In words: pulldown; control duplex without CAGAC. As to conditions: tags: GST fusion, E. coli. How it is done: as §1
The target of data set [3] is T3, Smad1 MH1 domain (UniProt Q15797 Q15797:1-219). In words: pulldown; specific for miR-21 duplex. Conditions: tags: GST fusion, E. coli. On the procedure:
as §1

A further data set concerns the target Smad4 full length (UniProt Q13485 Q13485:1-552). In words: pulldown. Conditions: tags: GST fusion, E. coli. On the procedure:
as §1

Data set [4] addresses T3, Smad1 MH1 domain. In words: pulldown; excess yeast tRNA. As to conditions: tags: GST fusion, E. coli. How it is done: (§2) To examine the interaction of SMAD proteins with double stranded CAGAC sequences of miRNA we performed RNA pull down experiments. Gst-Smad fusion proteins were expressed in E. coli and partially purified. As a proof of principal, we used mature miR-21 sequences (see below). ssRNA oligonucleotides were annealed to make dsRNA. GST-Pull down experiments were performed using the standard methods including aspects of those disclosed herein in the presence of excess amount of non-specific RNAa (yeast tRNAs). Full length GST-SMAD1 fusion protein and a GST-SMAD1 N-terminal (n219) MH1 domain interact with double stranded CAGAC sequences of miR-21
(§3) In vitro GST-SMAD-RNA pull down assay: GST-smad fusion proteins were expressed in E. coli, isolated and bound to glutathione S-sepharose beads. Following partial purification, Smad bound beads were washed 4×5 min at 4° C. in wash buffer (10 mM Tris-HCl pH 7.6, 0.5M LiCl, 0.1% triton) and 1×10 at 4° C. in binding buffer (20 mM Tris-HCl pH 7.6, 0.1M KCl, 0.1% Tween-20, 0.1% Triton). […] RNA was re-suspended in 20 μl water and 1 μl was used in a reverse transcriptase reaction followed by quantitative real time PCR to detect relative levels of RNA binding to Smad-GST fusion proteins.

Data set [5] concerns the target T1, Smad1 full length. The data set is described as follows: pulldown; excess yeast tRNA. Conditions: tags: GST fusion, E. coli. On the procedure:
as §2, §3

The target of another data set is Smad1 (UniProt Q15797 Q15797:1-465). The data set is described as follows: RNA-ChIP. Conditions: tags: Flag, Cos7; hairpin with flanks. How it is done: RNA-ChIP. Was performed as previously described [Fukuda, T. et al., Nat Cell Biol 9, 604-611 (2007)]. Briefly, PASMCs or Cos7 cells were crosslinked for 15 minutes with 1% formaldehyde, the cell pellet was resuspended in Buffer A (5 mM PIPES, pH 8.0, 85 mM KCl, 0.5% Nonidet P-40). After 10 min on ice, the crude nuclei fraction was isolated by centrifugation, and then suspended in Buffer B (1% SDS, 10 mM EDTA, 50 mM Tris-HCl, pH 8.1). After nuclei were disrupted by sonication, the lysates were cleared and subjected to immunoprecipitation with anti-Flag, anti-Smad1/5/8, Smad2/3, or p68 antibody, prior to stringent washing, and elution. The RNA was isolated using Trizol (invitrogen). Pellets were resuspended in 100 μl TE and incubated with DNase I (10 U) for 30 min at 37° C. to remove any remaining DNA. Following extraction with phenol:chloroform (5:1), RNA was precipitated with ethanol and dissolved in 20 μl of water. […] of RNA was used for a 20 μl cDNA synthesis reaction. Quantitative PCR reactions were then performed by real-time PCR machine (iQ5, Bio-Rad). Average of three experiments each performed in triplicate with standard errors are presented.

Data set [6] concerns the target T3, Smad1 MH1 domain. In words: pulldown; MH1 sufficient. As to conditions: tags: GST fusion, E. coli. On the procedure: as §1
For data set [7], the target named is T2, Smad3 full length. The data set is described as follows: pulldown. As to conditions: tags: GST fusion, E. coli. How it is done:
as §1

Data set [8] has as its target T1, Smad1 full length. In words: pulldown; tRNA and poly dI-dC, 0.1 M KCl, 4 C. As to conditions: tags: GST fusion, E. coli. How it is done:
as §1

T3 sequence (Q15797 1-219, one chain of several): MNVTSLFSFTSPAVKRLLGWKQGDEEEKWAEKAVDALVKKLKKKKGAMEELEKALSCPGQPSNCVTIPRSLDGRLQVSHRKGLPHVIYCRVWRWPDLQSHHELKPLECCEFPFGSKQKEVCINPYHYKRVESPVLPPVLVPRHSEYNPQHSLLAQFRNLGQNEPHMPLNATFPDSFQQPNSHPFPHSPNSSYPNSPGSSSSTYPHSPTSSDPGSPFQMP
T1 sequence (Q15797 whole entry, the tested form may be a part, one chain of several): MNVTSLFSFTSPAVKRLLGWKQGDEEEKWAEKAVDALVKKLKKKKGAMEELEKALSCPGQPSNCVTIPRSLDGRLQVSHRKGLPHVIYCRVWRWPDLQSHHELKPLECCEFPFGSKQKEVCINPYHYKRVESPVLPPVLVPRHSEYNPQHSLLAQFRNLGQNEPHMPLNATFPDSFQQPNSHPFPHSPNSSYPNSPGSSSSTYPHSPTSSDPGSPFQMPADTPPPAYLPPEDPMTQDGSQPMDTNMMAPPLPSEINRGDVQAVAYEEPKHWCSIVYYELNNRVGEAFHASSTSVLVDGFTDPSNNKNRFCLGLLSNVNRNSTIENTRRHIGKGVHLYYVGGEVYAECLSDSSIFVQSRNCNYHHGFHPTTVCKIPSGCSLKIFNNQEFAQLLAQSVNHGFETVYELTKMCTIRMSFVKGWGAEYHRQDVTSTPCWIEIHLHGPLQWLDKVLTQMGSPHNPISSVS
T2 sequence (P84022 whole entry, the tested form may be a part, one chain of several): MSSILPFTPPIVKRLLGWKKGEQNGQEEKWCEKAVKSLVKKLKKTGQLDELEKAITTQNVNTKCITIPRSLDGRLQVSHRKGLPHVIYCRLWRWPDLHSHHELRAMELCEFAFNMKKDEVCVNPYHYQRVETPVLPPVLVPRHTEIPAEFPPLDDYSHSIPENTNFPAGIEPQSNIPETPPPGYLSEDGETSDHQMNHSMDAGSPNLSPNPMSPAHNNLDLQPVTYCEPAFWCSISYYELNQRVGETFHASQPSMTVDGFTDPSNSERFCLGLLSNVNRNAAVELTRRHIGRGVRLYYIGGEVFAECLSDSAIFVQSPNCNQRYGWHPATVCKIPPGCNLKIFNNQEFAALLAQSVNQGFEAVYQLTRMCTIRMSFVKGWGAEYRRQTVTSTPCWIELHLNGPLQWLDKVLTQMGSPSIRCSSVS
Sequence of Smad4 full length (Q13485 whole entry, the tested form may be a part, one chain of several): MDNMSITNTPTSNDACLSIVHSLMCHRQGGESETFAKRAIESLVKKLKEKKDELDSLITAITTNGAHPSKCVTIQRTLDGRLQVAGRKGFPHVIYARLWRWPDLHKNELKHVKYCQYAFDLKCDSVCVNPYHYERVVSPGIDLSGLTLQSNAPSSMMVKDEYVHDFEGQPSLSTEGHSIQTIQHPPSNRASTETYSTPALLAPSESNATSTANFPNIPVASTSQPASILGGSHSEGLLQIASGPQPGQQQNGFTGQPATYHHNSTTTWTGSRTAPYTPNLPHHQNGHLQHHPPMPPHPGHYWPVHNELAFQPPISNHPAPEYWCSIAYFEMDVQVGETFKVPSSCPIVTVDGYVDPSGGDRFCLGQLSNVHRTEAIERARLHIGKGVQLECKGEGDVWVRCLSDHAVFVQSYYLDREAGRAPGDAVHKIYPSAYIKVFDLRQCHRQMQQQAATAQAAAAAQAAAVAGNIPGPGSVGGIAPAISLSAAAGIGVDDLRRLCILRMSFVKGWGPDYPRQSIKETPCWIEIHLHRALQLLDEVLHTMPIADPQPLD
Sequence of Smad1 (Q15797 whole entry, one chain of several): as the sequence (Q15797 whole entry, the tested form may be a part, one chain of several) above

B1: cel-miR-67 RNA duplex (dsRNA)
RNA 1: UCACAACCUCCUAGAAAGAGUAGA
RNA 2: UCUACUCUUUCUAGGAGGUUGUGA
As for B1, the binding result with Smad1 full length [1], with Smad3 full length [2], with Smad1 MH1 domain [3] and in the data set with Smad4 full length was “no binding” in each case.

B2: miR-21 duplex (annealed oligos) (dsRNA)
RNA 1: UAGCUUAUCAGACUGAUGUUGA
RNA 2: UCAACAUCAGUCUGAUAAGCUA
Turning to B2, the binding result with Smad1 MH1 domain [4] and in the data set with Smad1 full length [5] was “binds” throughout.

B3: pri-miR-21 from pCMV-miR-21 (480 nt; hairpin sequence given) (ssRNA)
RNA: UGUCGGGUAGCUUAUCAGACUGAUGUUGACUGUUGAAUCUCAUGGCAACACCAGUCGAUGGGCUGUCUGACA
Regarding B3, the binding signal with Smad1 worked out at 3 fold induction by BMP4.

B4: miR-21 RNA duplex (dsRNA)
RNA 1: UAGCUUAUCAGACUGAUGUUGA
RNA 2: UCAACAUCAGUCUGAUAAGCUA
In the case of B4, the binding result with Smad1 MH1 domain [6] was “binds”; with Smad4 full length it was “no binding”; in the data set with Smad3 full length [7] it was “binds”; with Smad1 full length [8], “binds”.
